One block for each substance: values may come before it. Ends that are not written are not given here. * marks the point of attachment. DOPE = dioleoylphosphatidylethanolamine, CCCCCCCC/C=C\CCCCCCCC(=O)OC[C@H](COP(=O)(O)OCCN*)OC(=O)CCCCCCC/C=C\CCCCCCCC; MeO‑PEG succinate = methoxy poly(ethylene glycol) succinate
Legend:
MMP-2 [1] = biological target: T1, MMP-2 (Homo sapiens, UniProt P08253); assay: Decomposition of the peptide by MMP-2, reverse phase HPLC; type: biochemical; details: 0.5 mM peptide, MMP2 53 nM, 230 nM and 450 nM, 37° C., 2 hours
T1 construct: purchased Sigma
T1 sequence (P08253 110-660): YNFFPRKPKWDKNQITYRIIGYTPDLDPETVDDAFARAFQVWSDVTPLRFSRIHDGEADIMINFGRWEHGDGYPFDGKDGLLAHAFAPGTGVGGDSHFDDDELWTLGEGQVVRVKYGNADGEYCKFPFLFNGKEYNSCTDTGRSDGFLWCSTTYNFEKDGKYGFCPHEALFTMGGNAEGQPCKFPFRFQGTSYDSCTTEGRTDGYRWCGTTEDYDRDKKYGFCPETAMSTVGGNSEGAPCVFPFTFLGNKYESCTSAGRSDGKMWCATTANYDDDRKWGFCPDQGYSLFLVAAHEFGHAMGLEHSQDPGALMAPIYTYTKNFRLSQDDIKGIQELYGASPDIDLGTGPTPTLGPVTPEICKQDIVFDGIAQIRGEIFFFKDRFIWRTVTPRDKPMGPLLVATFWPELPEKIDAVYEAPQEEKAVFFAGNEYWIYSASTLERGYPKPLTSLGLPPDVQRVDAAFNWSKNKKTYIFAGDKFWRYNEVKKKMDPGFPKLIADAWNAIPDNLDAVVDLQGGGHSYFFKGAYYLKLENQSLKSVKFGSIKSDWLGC
Method: Matrix metalloproteinase 2 (MMP-2) was purchased from Sigma. DOPE-PEG was purchased from Avanti. Trypsin was purchased from Life Technologies. DISMIC was purchased from Advantec. Reverse phase HPLC was performed by using Model 1321H1 (GILSON), UV/VIS-155 (GILSON) as a detector, SOSMOSIL 5C18-AR-II (Nacalai Tesque) as a column, and 0.5% TFA-H2O and 0.5% TFA-acetonitrile filtered through Millicup-LH vacuum-driven bottletop filter unit (Millipore) as a mobile phase. The flow rate was 1.0 mL/minute.
First, it was examined whether or not the peptide was decomposed by MMP-2. A 0.5 mM peptide solution (25 μL) dissolved in a solution containing 10 mM HEPES (pH 7.4), 140 mM NaCl and 2 mM CaCl2 was analyzed by reverse phase HPLC. Further, MMP2 was added to the 0.5 mM peptide solution (25 μL) at a final concentration of 53 nM, 230 nM and 450 nM, each mixture was incubated at 37° C. for 2 hours, and then the whole volume of the mixture was analyzed by HPLC to confirm whether or not the peptide was decomposed by MMP2.

[2] = Particle diameter and aggregation of DOPE liposomes versus addition ratio of PEG-lipid; type: physicochemical; details: for aggregation on incubation: DOPE liposomes with PEG-peptide-DOPE, 37° C.
Method: (§1) A 1 mM lipid solution dissolved in ethanol, of which 125 μL was taken as 100%, was put into test tubes at various molar ratios, and a 1 mM DOPE-PEG solution was also added as required. Chloroform was added in the same volume of ethanol to the mixture in each tube, and the mixture was stirred. Then, the solvent was evaporated in a desiccator to obtain a lipid membrane. After the preparation of the lipid membrane, a solution (250 μL) containing 20 mM HEPES (pH 7.4), 280 mM NaCl, and 4 mM CaCl2 was added, and after hydration for 30 minutes, the mixture was sonicated for 1 minute to prepare liposomes.
(§2) Then, to the prepared liposomes (50 μL), PBS (10 μL), 230 nM or 5.5 nM MMP-2 in terms of final concentration, and 230 nM bovine serum albumin in terms of final concentration were added, the mixture was incubated at 37° C., and after 2, 8 and 24 hours, the particle diameter was measured. […] Even with the addition of 1% of DOPE-PEG, liposomes having a particle size less than 200 nm and showing stable dispersion was successfully prepared.
Also in this experiment, liposomes having a particle size less than 200 nm and showing stable dispersion were similarly prepared with the addition of 1% of PEG-peptide-DOPE.

MMP-2 [3] = biological target: T1, MMP-2; assay: Evaluation of PEG cleavage by MMP-2 (aggregation / particle diameter of DOPE liposomes); type: biochemical; details: for aggregation of the liposomes: DOPE liposomes containing PEG-peptide-DOPE at 10%
Method: It was evaluated whether or not the PEG-peptide-DOPE obtained in Example 1 was cleavable with MMP. For in vitro evaluation, a system was used with which the cleavage of PEG was detected on the basis of an increase in particle diameter. […] Cylinder-shaped lipids form a lamellar structure (bilayer structure), i.e., a liposome structure, whereas inverse cone-shape lipids form a […] (FIG. 1). It is known that when a PEG-lipid is added at a certain ratio to DOPE, the lipids form a lamellar structure and stably form liposomes. Therefore, if a matrix metalloproteinase is made to act on DOPE-containing liposomes prepared by using PEG-peptide-DOPE, thereby the peptide is decomposed and PEG is cleaved, DOPE molecules from which PEG is cleaved can no longer form liposomes, and take the hexagonal structure to initiate the aggregation. The above hypothesis was adopted as an evaluation method for PEG cleavage. Further, for in vitro evaluation of PEG cleavage, a method of measuring genetic expression activity was adopted. If the interaction of MEND and cell membranes is enhanced by cleavage of PEG, […].
as §1, §2

[4] = Particle diameter and zeta-potential of MENDs (Example 3); type: physicochemical
Method: In order to prepare a negatively charged compaction body, the charge ratio (+/−) was determined to be 1.5 according to the formula (1). To 30 μL of pDNA (0.5 mg/mL), 120 μL of 10 mM HEPES-HCl (pH 7.4) was added. To 5 μL of protamine (2 mg/mL), […] of 10 mM HEPES-HCl (pH 7.4) was added. Protamine was slowly added dropwise to the pDNA solution with stirring by a vortex mixer. Formation of the compaction body was confirmed by measurement of the particle diameter and zeta-potential.
Lipid solutions of 1 mM in ethanol, each of which 125 μL was taken as 100%, were put into test tubes at molar ratios of 30% DOTAP, 40% DOPE, and 30% Chol. As for addition of PEG-lipids, 1 mM PEG-DSPE solution or PEG-peptide-DOPE solution in ethanol was added at a molar ratio of 5% or 15% based on the lipids except for the PEG-lipids, which were taken as 100%. Chloroform was added in the same volume of ethanol to the mixture in each tube, and the mixture was stirred. Then, the solvent was evaporated in a desiccator to obtain a lipid membrane. Then, the compaction body solution (250 μL) was added to the lipid membrane, and the mixture was left standing at room temperature for 15 to 30 minutes for hydration, and then sonicated for 1 to 2 minutes. The particle diameter and the zeta-potential were measured. Any significant difference was not observed between the values measured for MENDs containing PEG-peptide-DOPE and MENDs containing PEG-DSPE, and thus it was considered that equivalent MENDs were successfully prepared.

HT1080 cells = assay: Gene expression (luciferase activity) after transfection with MENDs, HT1080 cells; type: cell-based, human
Method: (§3) By using D′MEM added with inactivated FBS (FBS final concentration: 10%), the human fibrosarcoma-derived HT1080 cells were cultured on a sterilized culture dish in a CO2 incubator (37° C., 5% CO2). When the cells reached 70% confluence, the cells were removed from the dish by using 0.5 mM EDTA-PBS, the cell suspension was diluted to a density of 1 to 5×10^4 cells/mL using fresh D′MEM, and the cells were subcultured on a sterilized dish. In a similar manner, human kidney […] HEK293 cells were cultured. In the case of the HEK293 cells, the cells were removed from the dish by using 0.05% Trypsin/0.5 mM EDTA-PBS, and subcultured.
(§4) One day before the transfection, the HT1080 cells and the HEK293 cells were each inoculated into 1 mL of a medium on a 24-well plate at a density of 4×10^4 cells/well. A sample, prepared to be corresponding to 0.4 μg of DNA, was diluted to 250 μL with FBS- and antibiotic-free D′MEM (hereinafter abbreviated as “D′MEM(−)”) in the case of a serum free medium, or diluted similarly with D′MEM in the case of serum containing medium. […] The luciferase activity (RLU) in 20 μL of the supernatant was measured, and proteins were measured according to the BCA method for the supernatant diluted 5 times with DDW to calculate RLU/mg protein.

HEK293 cells = assay: Gene expression (luciferase activity) after transfection with MENDs, HEK293 cells; type: cell-based, human
Method: as §3, §4

[5] = Particle diameter and zeta-potential of compaction body and MENDs (Example 4); type: physicochemical; details: Example 4, in HBG; PEG-lipid ratio (5% or 15%) not given
Method: According to the formula (I) mentioned in Example 3, the charge ratio (+/−) was determined to be 1.5, and a compaction body of pDNA coding for luciferase and protamine was prepared in HEPES buffered glucose (10 mM HEPES, pH 7.4, 5% glucose, HBG).
In the same manner as that of Example 3, a lipid membrane consisting of 30% DOTAP, 40% DOPE, and 30% Chol was prepared. To this membrane, PEG-DSPE or PEG-peptide-DOPE was added at a molar ratio of 5% or 15%, and the mixture was evaporated to obtain lipid membranes. Then, the compaction body was added to each of these lipid membranes, and the mixtures were sonicated to prepare MEND, PEG-modified MEND containing PEG-DSPE, and PEG-modified MEND containing PEG-peptide-DOPE.

[6] = MEND with PEG-lipid at molar ratio 5%
[7] = MEND with PEG-lipid at molar ratio 15%

Substance: GGGVPLSLYSGGGG [peptide]
decomposition of the peptide by MMP-2 (HPLC peak of degradation product) (MMP-2 [1]): peak became larger in an enzyme concentration-dependent manner

aggregation of the liposomes (MMP-2 [3]; 230 nM BSA, 37° C.): Aggregation was not observed
aggregation of the liposomes (MMP-2 [3]; 230 nM MMP-2, 37° C.): aggregation was observed
cleavage by MMP-2 (MMP-2 [3]; lipid in the state of constituting liposomes): cleaved by MMP-2
Substance: PEG-peptide-DOPE: MeO-PEG succinate bound to Gly-Gly-Gly-Val-Pro-Leu-Ser-Leu-Tyr-Ser-Gly-Gly-Gly-Gly, bound to dioleoylphosphatidylethanolamine; tested as component of liposomes and MENDs ({MeO‑PEG succinate}-GGGVPLSLYSGGGG-{DOPE})
aggregation on incubation ([2]; PEG content up to 5%): aggregation was observed
aggregation on incubation ([2]; addition amount of 10%): aggregation was not observed
particle size ([2]; DOPE liposomes, addition of 1% of PEG-peptide-DOPE): less than 200 nm
elevation of phase transition temperature compared with DOPE-PEG ([2]; DOPE liposomes, suggested by the results): did not elevate the phase transition temperature as much as DOPE-PEG
aggregation of the liposomes (MMP-2 [3]; 5.5 nM MMP-2, 37° C.): Aggregation of the liposomes was not observed
aggregation of the liposomes (MMP-2 [3]; in PBS, 37° C.): Aggregation of the liposomes was not observed
particle diameter [4, 6]: 162.2 nm
zeta-potential [4, 6]: +18.79 mV
particle diameter [4, 7]: 141.2 nm
zeta-potential [4, 7]: +2.80 mV
increase of gene expression compared with PEG-DSPE (HT1080 cells; MEND modified with 5% of PEG): 35 times
gene expression activity compared with the PEG-DSPE modification group (HT1080 cells; MEND modified with 15% of PEG): did not give the increase of the gene expression activity
increase of gene expression compared with PEG-DSPE (HEK293 cells; MEND modified with 5% of PEG): 5 times
gene expression activity compared with the PEG-DSPE modification group (HEK293 cells; MEND modified with 15% of PEG): did not give the increase of the gene expression activity
particle diameter [5]: 141 nm
ξ -potential [5]: 12.8 mV

— patent US20090022782A1, “Blood Retainable Device Exhibiting Selective Degradability in Tumor Tissue” (NATIONAL UNIVERSITY CORP. HOKKAIDO UNIVERSITY, priority 2005, published 2009)
